Laboratory results published in patent publication US20140087995A1 (published 2014).
Numbered stars: 1 amine (or outer) side, 2 acyl side, 3 side chain; on linkers, the order of the positions; unused ones are H or OH. Bridge positions count the residues as written; N and C are the ends. Side chains are listed from the residue outwards. Ends that are not written are not given here. * marks the point of attachment. C20 diacid = O=C(O)CCCCCCCCCCCCCCCCCCC(=O)*; γGlu = O=C(O)[C@H](CCC(=O)[*:2])N[*:1]

Legend:
[1] = biological target: T1, rat amylin receptor (rat calcitonin receptor + rat RAMP 3) (rat, UniProt P32214 25-516; Q9JJ73 23-147); experiment: SPA competition vs 125I-rat amylin, membranes with rat CTR + rat RAMP3 (Assay VI)
T1 construct: whole, on cells; Membranes of BHK tk'ts 13 cells transiently transfected with the rat calcitonin receptor and rat RAMP 3; also called rAmylin-R; rat amylin 3(a) receptor
T1 sequence (looked up) 1: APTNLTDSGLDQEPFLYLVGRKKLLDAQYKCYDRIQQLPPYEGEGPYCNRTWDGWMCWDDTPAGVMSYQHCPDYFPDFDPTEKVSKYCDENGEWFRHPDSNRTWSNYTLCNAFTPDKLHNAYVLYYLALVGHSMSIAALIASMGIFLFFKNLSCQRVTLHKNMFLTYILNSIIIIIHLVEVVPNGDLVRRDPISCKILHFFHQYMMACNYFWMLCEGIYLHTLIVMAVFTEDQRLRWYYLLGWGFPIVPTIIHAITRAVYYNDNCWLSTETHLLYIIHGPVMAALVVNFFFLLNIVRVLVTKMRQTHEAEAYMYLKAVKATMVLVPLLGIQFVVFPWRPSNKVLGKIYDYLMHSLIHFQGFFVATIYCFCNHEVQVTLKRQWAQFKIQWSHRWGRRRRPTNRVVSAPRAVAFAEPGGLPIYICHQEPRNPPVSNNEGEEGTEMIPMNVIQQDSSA
T1 sequence (looked up) 2: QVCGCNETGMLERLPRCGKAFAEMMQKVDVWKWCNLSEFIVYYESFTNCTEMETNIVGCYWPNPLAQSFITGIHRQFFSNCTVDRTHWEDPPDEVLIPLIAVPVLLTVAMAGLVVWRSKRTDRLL

rat calcitonin receptor [2] = biological target: T2, rat calcitonin receptor (rat, UniProt P32214 25-516); experiment: SPA competition vs 125I-calcitonin, membranes with rat CTR (Assay VIII)
T2 construct: whole, on cells; Membranes of BHK tk'ts 13 cells transiently transfected with the rat calcitonin receptor; also called rCTR; rat calcitonin (a) receptor
T2 sequence (looked up): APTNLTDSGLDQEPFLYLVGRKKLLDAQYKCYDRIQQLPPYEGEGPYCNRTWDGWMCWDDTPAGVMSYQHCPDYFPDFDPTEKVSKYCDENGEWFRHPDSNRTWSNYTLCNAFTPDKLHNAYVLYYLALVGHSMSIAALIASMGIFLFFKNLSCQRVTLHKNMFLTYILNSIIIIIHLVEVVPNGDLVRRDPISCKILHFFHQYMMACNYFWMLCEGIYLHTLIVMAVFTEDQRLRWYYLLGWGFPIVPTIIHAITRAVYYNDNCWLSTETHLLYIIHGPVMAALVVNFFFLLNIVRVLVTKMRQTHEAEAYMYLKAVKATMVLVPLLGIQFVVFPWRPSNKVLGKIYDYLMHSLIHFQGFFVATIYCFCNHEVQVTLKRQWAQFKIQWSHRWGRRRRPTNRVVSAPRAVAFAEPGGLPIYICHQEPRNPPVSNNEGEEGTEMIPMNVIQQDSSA

[3] = biological target: T3, human calcitonin receptor (human, UniProt P30988 25-474); experiment: IC50 at hCTR divided by IC50 at hAmylin-R (reference)
T3 construct: whole, on cells; Membranes of a BHK tk'ts 13 cell line stably transfected with the human calcitonin receptor; also called hCTR; hCT
T3 sequence (looked up): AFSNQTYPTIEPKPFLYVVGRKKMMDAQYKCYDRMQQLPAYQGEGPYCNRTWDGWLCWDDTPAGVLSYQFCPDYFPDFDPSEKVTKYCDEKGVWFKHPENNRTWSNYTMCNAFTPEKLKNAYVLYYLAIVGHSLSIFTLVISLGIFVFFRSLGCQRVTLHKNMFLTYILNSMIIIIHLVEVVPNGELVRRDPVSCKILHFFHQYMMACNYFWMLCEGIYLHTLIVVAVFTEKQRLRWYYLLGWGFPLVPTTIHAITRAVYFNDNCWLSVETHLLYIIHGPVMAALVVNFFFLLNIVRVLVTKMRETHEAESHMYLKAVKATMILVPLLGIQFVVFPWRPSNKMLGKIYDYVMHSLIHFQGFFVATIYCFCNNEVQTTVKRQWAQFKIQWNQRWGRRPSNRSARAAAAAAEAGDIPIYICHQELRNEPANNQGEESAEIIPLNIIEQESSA
Method in brief: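 Competition binding by SPA with cell membranes (35 ng/μL) and SPA beads in 50 mM Hepes pH 7.4 with 1 mM CaCl2, 5 mM MgCl2, 0.1% OA and 0.02% Tween20. Incubated 120 min at 25 °C with shaking, then counted.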

rat calcitonin receptor [4] = biological target: T2, rat calcitonin receptor; experiment: IC50 at rCTR divided by IC50 at rAmylin-R (reference)

| Binder | IC50 [1] | IC50 (rat calcitonin receptor [2]) | Ratio hCT/hAmylin binding [3] | Ratio rCT/rAmylin binding (rat calcitonin receptor [4]) |
| --- | --- | --- | --- | --- |
| K([γGlu-C20 diacid])CNTATCATQRLANFLRHSSPNFGAIPSSTNVGSETY-NH2 (disulfide 2-7; N-terminus assumed; SMILES CC[C@H](C)[C@H](NC(=O)[C@H](C)NC(=O)CNC(=O)[C@H](Cc1ccccc1)NC(=O)[C@H](CC(N)=O)NC(=O)[C@@H]1CCCN1C(=O)[C@H](CO)NC(=O)[C@H](CO)NC(=O)[C@H](Cc1c[nH]cn1)NC(=O)[C@H](CCCNC(=N)N)NC(=O)[C@H](CC(C)C)NC(=O)[C@H](Cc1ccccc1)NC(=O)[C@H](CC(N)=O)NC(=O)[C@H](C)NC(=O)[C@H](CC(C)C)NC(=O)[C@H](CCCNC(=N)N)NC(=O)[C@H](CCC(N)=O)NC(=O)[C@@H](NC(=O)[C@H](C)NC(=O)[C@@H]1CSSC[C@H](NC(=O)[C@@H](N)CCCCNC(=O)CC[C@H](NC(=O)CCCCCCCCCCCCCCCCCCC(=O)O)C(=O)O)C(=O)N[C@@H](CC(N)=O)C(=O)N[C@@H]([C@@H](C)O)C(=O)N[C@@H](C)C(=O)N[C@@H]([C@@H](C)O)C(=O)N1)[C@@H](C)O)C(=O)N1CCC[C@H]1C(=O)N[C@@H](CO)C(=O)N[C@@H](CO)C(=O)N[C@H](C(=O)N[C@@H](CC(N)=O)C(=O)N[C@H](C(=O)NCC(=O)N[C@@H](CO)C(=O)N[C@@H](CCC(=O)O)C(=O)N[C@H](C(=O)N[C@@H](Cc1ccc(O)cc1)C(N)=O)[C@@H](C)O)C(C)C)[C@@H](C)O, modifications are with respect to human amylin; also called compound 27) [N^ε1-[(4S)-4-carboxy-4-(19-carboxynonadecanoylamino)butanoyl]-[Arg17,Pro21,Pro27,Glu35]-h-amylin] | 0.614 nM | 90.2 nM | 41.3 | 147 |
| K([γGlu-C20 diacid])CNTATCATQRLANFLRHSSPNFGAIPSSTNVGSKTY-NH2 (disulfide 2-7; N-terminus assumed; SMILES CC[C@H](C)[C@H](NC(=O)[C@H](C)NC(=O)CNC(=O)[C@H](Cc1ccccc1)NC(=O)[C@H](CC(N)=O)NC(=O)[C@@H]1CCCN1C(=O)[C@H](CO)NC(=O)[C@H](CO)NC(=O)[C@H](Cc1c[nH]cn1)NC(=O)[C@H](CCCNC(=N)N)NC(=O)[C@H](CC(C)C)NC(=O)[C@H](Cc1ccccc1)NC(=O)[C@H](CC(N)=O)NC(=O)[C@H](C)NC(=O)[C@H](CC(C)C)NC(=O)[C@H](CCCNC(=N)N)NC(=O)[C@H](CCC(N)=O)NC(=O)[C@@H](NC(=O)[C@H](C)NC(=O)[C@@H]1CSSC[C@H](NC(=O)[C@@H](N)CCCCNC(=O)CC[C@H](NC(=O)CCCCCCCCCCCCCCCCCCC(=O)O)C(=O)O)C(=O)N[C@@H](CC(N)=O)C(=O)N[C@@H]([C@@H](C)O)C(=O)N[C@@H](C)C(=O)N[C@@H]([C@@H](C)O)C(=O)N1)[C@@H](C)O)C(=O)N1CCC[C@H]1C(=O)N[C@@H](CO)C(=O)N[C@@H](CO)C(=O)N[C@H](C(=O)N[C@@H](CC(N)=O)C(=O)N[C@H](C(=O)NCC(=O)N[C@@H](CO)C(=O)N[C@@H](CCCCN)C(=O)N[C@H](C(=O)N[C@@H](Cc1ccc(O)cc1)C(N)=O)[C@@H](C)O)C(C)C)[C@@H](C)O, modifications are with respect to human amylin; also called compound 35) [N^ε1-[(4S)-4-carboxy-4-(19-carboxynonadecanoylamino)butanoyl]-[Arg17,Pro21,Pro27,Lys35]-h-amylin] | 0.948 nM | 61.7 nM | 50.3 | 65.1 |
| K([γGlu-γGlu-C20 diacid])CNTATCATQRLADFLRHSSPNFGAPLSSTNVGSDTY-NH2 (disulfide 2-7; N-terminus assumed; SMILES CC(C)C[C@H](NC(=O)[C@H](CCCNC(=N)N)NC(=O)[C@H](CCC(N)=O)NC(=O)[C@@H](NC(=O)[C@H](C)NC(=O)[C@@H]1CSSC[C@H](NC(=O)[C@@H](N)CCCCNC(=O)CC[C@H](NC(=O)CC[C@H](NC(=O)CCCCCCCCCCCCCCCCCCC(=O)O)C(=O)O)C(=O)O)C(=O)N[C@@H](CC(N)=O)C(=O)N[C@@H]([C@@H](C)O)C(=O)N[C@@H](C)C(=O)N[C@@H]([C@@H](C)O)C(=O)N1)[C@@H](C)O)C(=O)N[C@@H](C)C(=O)N[C@@H](CC(=O)O)C(=O)N[C@@H](Cc1ccccc1)C(=O)N[C@@H](CC(C)C)C(=O)N[C@@H](CCCNC(=N)N)C(=O)N[C@@H](Cc1c[nH]cn1)C(=O)N[C@@H](CO)C(=O)N[C@@H](CO)C(=O)N1CCC[C@H]1C(=O)N[C@@H](CC(N)=O)C(=O)N[C@@H](Cc1ccccc1)C(=O)NCC(=O)N[C@@H](C)C(=O)N1CCC[C@H]1C(=O)N[C@@H](CC(C)C)C(=O)N[C@@H](CO)C(=O)N[C@@H](CO)C(=O)N[C@H](C(=O)N[C@@H](CC(N)=O)C(=O)N[C@H](C(=O)NCC(=O)N[C@@H](CO)C(=O)N[C@@H](CC(=O)O)C(=O)N[C@H](C(=O)N[C@@H](Cc1ccc(O)cc1)C(N)=O)[C@@H](C)O)C(C)C)[C@@H](C)O, modifications are with respect to human amylin; also called compound 1) | 1.3 nM | 135 nM | 27.6 | 104 |
| K([γGlu-γGlu-C20 diacid])CNTATCATQRLADFLRHSSPNFGAIPSSTNVGSDTY-NH2 (disulfide 2-7; N-terminus assumed; SMILES CC[C@H](C)[C@H](NC(=O)[C@H](C)NC(=O)CNC(=O)[C@H](Cc1ccccc1)NC(=O)[C@H](CC(N)=O)NC(=O)[C@@H]1CCCN1C(=O)[C@H](CO)NC(=O)[C@H](CO)NC(=O)[C@H](Cc1c[nH]cn1)NC(=O)[C@H](CCCNC(=N)N)NC(=O)[C@H](CC(C)C)NC(=O)[C@H](Cc1ccccc1)NC(=O)[C@H](CC(=O)O)NC(=O)[C@H](C)NC(=O)[C@H](CC(C)C)NC(=O)[C@H](CCCNC(=N)N)NC(=O)[C@H](CCC(N)=O)NC(=O)[C@@H](NC(=O)[C@H](C)NC(=O)[C@@H]1CSSC[C@H](NC(=O)[C@@H](N)CCCCNC(=O)CC[C@H](NC(=O)CC[C@H](NC(=O)CCCCCCCCCCCCCCCCCCC(=O)O)C(=O)O)C(=O)O)C(=O)N[C@@H](CC(N)=O)C(=O)N[C@@H]([C@@H](C)O)C(=O)N[C@@H](C)C(=O)N[C@@H]([C@@H](C)O)C(=O)N1)[C@@H](C)O)C(=O)N1CCC[C@H]1C(=O)N[C@@H](CO)C(=O)N[C@@H](CO)C(=O)N[C@H](C(=O)N[C@@H](CC(N)=O)C(=O)N[C@H](C(=O)NCC(=O)N[C@@H](CO)C(=O)N[C@@H](CC(=O)O)C(=O)N[C@H](C(=O)N[C@@H](Cc1ccc(O)cc1)C(N)=O)[C@@H](C)O)C(C)C)[C@@H](C)O, modifications are with respect to human amylin; also called compound 2) | 0.295 nM | 108 nM | 47.5 | 366 |
| K([γGlu-γGlu-C20 diacid])CNTATCATQRLADFLRHSSNPFGAPLSSTNVGSDTY-NH2 (disulfide 2-7; N-terminus assumed; SMILES CC(C)C[C@H](NC(=O)[C@H](CCCNC(=N)N)NC(=O)[C@H](CCC(N)=O)NC(=O)[C@@H](NC(=O)[C@H](C)NC(=O)[C@@H]1CSSC[C@H](NC(=O)[C@@H](N)CCCCNC(=O)CC[C@H](NC(=O)CC[C@H](NC(=O)CCCCCCCCCCCCCCCCCCC(=O)O)C(=O)O)C(=O)O)C(=O)N[C@@H](CC(N)=O)C(=O)N[C@@H]([C@@H](C)O)C(=O)N[C@@H](C)C(=O)N[C@@H]([C@@H](C)O)C(=O)N1)[C@@H](C)O)C(=O)N[C@@H](C)C(=O)N[C@@H](CC(=O)O)C(=O)N[C@@H](Cc1ccccc1)C(=O)N[C@@H](CC(C)C)C(=O)N[C@@H](CCCNC(=N)N)C(=O)N[C@@H](Cc1c[nH]cn1)C(=O)N[C@@H](CO)C(=O)N[C@@H](CO)C(=O)N[C@@H](CC(N)=O)C(=O)N1CCC[C@H]1C(=O)N[C@@H](Cc1ccccc1)C(=O)NCC(=O)N[C@@H](C)C(=O)N1CCC[C@H]1C(=O)N[C@@H](CC(C)C)C(=O)N[C@@H](CO)C(=O)N[C@@H](CO)C(=O)N[C@H](C(=O)N[C@@H](CC(N)=O)C(=O)N[C@H](C(=O)NCC(=O)N[C@@H](CO)C(=O)N[C@@H](CC(=O)O)C(=O)N[C@H](C(=O)N[C@@H](Cc1ccc(O)cc1)C(N)=O)[C@@H](C)O)C(C)C)[C@@H](C)O, modifications are with respect to human amylin; also called compound 3) | 1 nM | 16.7 nM | 17.3 | 16.7 |
